The values that follow come from patent US20160193316A1 (priority 1994, published 2016).

One assay concerns the target T1, HLA-A*0301 (Homo sapiens, UniProt P04439).
T1 construct: endogenous in cells; host or cells: GM3107
Put plainly: HLA class I peptide binding assay. Particulars: for A*0301 (binding information): Table XVI, Malaria A3 motif peptides.

The next assay concerns the target HLA-A*1101 (Homo sapiens, UniProt P04439, A114D/D185E/E176A/F33Y/L180Q/S129P/T187R). Put plainly: HLA class I peptide binding assay. Conditions: Table XVII.
A further assay concerns the target T2, DRB1*0101 (DR1) (Homo sapiens, UniProt P01903+P01911, A100R/D57E/F55L/F60I/F76Y/I96L/L162R/M171V/P40L/Q125E/R42F/V115G/Y59C).
T2 construct: endogenous in cells; host or cells: LG2
Kind of assay: HLA class II peptide binding assay. Particulars: for DR1 binding data: Table XIXb, Malaria Super Motif Peptides With Binding Data; for DR1 binding information: unit not given.

Another assay has as its target T3, DRB1*0401 (DR4w4) (Homo sapiens, UniProt P01903+P01911, A100K/A169T/F76Y/I96L/K127E/L162R/M171V/N62H/P40V/Q125Y/R42H/S133A/S149N/S66Y/V115G/V209L/W38E).
T3 construct: endogenous in cells; host or cells: Preiss
Put plainly: HLA class II peptide binding assay. Particulars: for DR4w4 binding data: Table XIXb; for DR4w4 binding information: unit not given.

Another assay concerns the target T4, DRB1*0405 (DR4w15) (Homo sapiens, UniProt P01903+P01911, A100R/A169T/D86S/F76Y/I96L/K127E/L162R/M171V/N62H/P40V/Q125Y/R42H/S133A/S149N/S66Y/V115G/V209L/W38E).
T4 construct: endogenous in cells; host or cells: KT3
Kind of assay: HLA class II peptide binding assay. Conditions: for DR4w15 binding data: Table XIXb; for DR4w15 binding information: unit not given.

A further assay concerns the target T5, DRB1*0701 (DR7) (Homo sapiens, UniProt P01903+P01911, A100R/A102G/A103Q/D57E/D86V/E43K/F76Y/K127E/L162R/M171V/P40G/Q125H/Q99D/R33Q/R42Y/R54Q/S133A/S66F/T210M/V115G/Y107V/Y59L/Y89S).
T5 construct: endogenous in cells; host or cells: Pitout
Kind of assay: biochemical. Format: binding.

Another assay concerns the target T6, DRB1*0802 (DR8w2) (Homo sapiens, UniProt P01903+P01911, A100R/A103L/A169T/F76Y/H45Y/I96F/K41T/L162R/M171V/P40S/Q125H/Q178H/Q39Y/Q99D/R218S/R42G/S66Y/V115G/W38E).
T6 construct: endogenous in cells; host or cells: OLL
Kind of assay: biochemical. Format: binding.

The target of the next assay is T7, DRB1*1101 (DR5w11) (Homo sapiens, UniProt P01903+P01911, A100R/A169T/A87E/I96F/K41T/L162R/M171V/P40S/Q125H/Q178H/Q39Y/Q99D/R42S/S66Y/T262R/V115G/W38E).
T7 construct: endogenous in cells; host or cells: Sweig
Put plainly: biochemical. Format: binding.

Another assay addresses T8, DRB1*1201 (DR5w12) (Homo sapiens, UniProt P01903+P01911, A100R/A169T/D57E/D86V/F55L/H45Y/K41T/L162R/M171V/P40S/Q125H/Q178H/Q39Y/Q99D/R42G/S66L/T262R/V114A/V67L/W38E/Y59H/Y61H/Y89S).
T8 construct: endogenous in cells; host or cells: Herluf
Kind of assay: HLA class II peptide binding assay. Particulars: for DR5w12 binding data: Table XIXb; for DR5w12 binding information: unit not given.

The target of a further assay is T9, DRB5*0101 (DR2w2β2) (Homo sapiens, UniProt P01903+Q30154).
T9 construct: expressed in transfected cells; host or cells: L416.3 (fibroblasts) or GM3107
It counts as binding.

The target of the next assay is T10, DRB1*0301 (DR3) (Homo sapiens, UniProt P01903+P01911, A100K/A102G/A103R/A169T/F55Y/I96L/K41T/L162R/M171V/P40S/Q125H/Q178H/Q39Y/R42S/S66N/T106N/T262R/W38E/Y61H).
T10 construct: endogenous in cells; host or cells: MAT
Kind of assay: HLA class II peptide binding assay (pH 4.5). Conditions: for DR3 binding information: unit not given.

The mark [1] stands for this setting: Malaria A11 motif peptides, HLA-A*1101 binding value, unit not given.
Where [2] appears, read: binding value to HLA-A*0301, unit not given.
Where [3] appears, read: malaria A11 motif peptides, binding value unit not given.
[4] abbreviates: DR3a motif peptides, exemplary 15-mer containing the core sequence.

T7 sequence (P01903 26-254, other chains not shown): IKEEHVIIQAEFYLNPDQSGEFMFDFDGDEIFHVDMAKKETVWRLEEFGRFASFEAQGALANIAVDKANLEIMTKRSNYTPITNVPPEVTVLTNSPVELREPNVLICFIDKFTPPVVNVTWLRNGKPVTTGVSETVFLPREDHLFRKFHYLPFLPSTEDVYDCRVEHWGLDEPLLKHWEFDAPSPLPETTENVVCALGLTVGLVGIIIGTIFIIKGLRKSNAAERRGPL
T3 sequence (P01903 26-254 partner, other chains not shown): as the sequence (P01903 26-254, other chains not shown) above
T2 sequence (P01903 26-254 partner, other chains not shown): as the sequence (P01903 26-254, other chains not shown) above

As for LGGVGLVLY, in the assay with HLA-A*0301 (binding value for HLA-A*0301, unit not given), the “A*0301 (binding information)” value is reported as 0.0001. Further, the “A*1101 binding information” value with HLA-A*1101 (setting [1]) was found to be 0.0002. For the same substance, the DR1 binding data with DRB1*0101 (DR1) is given as 0.4900. Also, the DR4w4 binding data with DRB1*0401 (DR4w4) worked out at 0.0032. In addition, the DR4w15 binding data with DRB1*0405 (DR4w15) is listed as -0.0009. The substance further gave a DR7 binding data with DRB1*0701 (DR7) of 0.0007. For the same substance, the DR8w2 binding data with DRB1*0802 (DR8w2) is recorded as -0.0002. The substance also returned a DR5w11 binding data in the assay with DRB1*1101 (DR5w11) of -0.0062. The DR5w12 binding data with DRB1*1201 (DR5w12) worked out at 0.0004. The same substance registered a DR2w2β2 binding data with DRB5*0101 (DR2w2β2) of -0.005.
With LGVSENTIFLK, the “A*1101 binding information” value with HLA-A*1101 (Malaria A11 motif peptides, binding value for HLA-A*1101, unit not given) was determined as 0.0063.
The substance LHEGCTSEL showed a DR1 binding data with DRB1*0101 (DR1) of 0.0001. Besides, the DR3 binding data with DRB1*0301 (DR3) (Table XIXb, DR3) was -0.0041. Moreover, the DR4w4 binding data in the assay with DRB1*0401 (DR4w4) is reported as -0.0009. This substance also gave a DR4w15 binding data with DRB1*0405 (DR4w15) of -0.0014. Also, the DR7 binding data in the assay with DRB1*0701 (DR7) is reported as -0.0003. For the same substance, the DR8w2 binding data with DRB1*0802 (DR8w2) is -0.0003. The substance further yielded a DR5w11 binding data in the assay with DRB1*1101 (DR5w11) of -0.0002. The DR5w12 binding data with DRB1*1201 (DR5w12) amounted to 0.0001. This substance also registered a DR2w2β2 binding data in the assay with DRB5*0101 (DR2w2β2) of -0.0005.
LNKEGKLIE gave a DR1 binding information in the assay with DRB1*0101 (DR1) (Malaria DR3b motif peptides) of 0.0001. In the assay with DRB1*0301 (DR3) (Malaria DR3b motif peptides), this substance gave a DR3 binding information of -0.0140. In the assay with DRB1*0401 (DR4w4) (Malaria DR3b motif peptides), this substance gave a DR4w4 binding information of -0.0017. The same substance came in with a DR4w15 binding information in the assay with DRB1*0405 (DR4w15) (Malaria DR3b motif peptides) of -0.0047. The same substance showed a DR7 binding information in the assay with DRB1*0701 (DR7) of -0.0009. Moreover, the DR8w2 binding information in the assay with DRB1*0802 (DR8w2) is -0.0007. The substance further registered a DR5w11 binding information in the assay with DRB1*1101 (DR5w11) of -0.0005. In the assay with DRB1*1201 (DR5w12) (Malaria DR3b motif peptides), this substance registered a DR5w12 binding information of -0.0003. For the same substance, the DR2w2β2 binding information with DRB5*0101 (DR2w2β2) is -0.0021.
As for LSTNLPYGR, the “A*0301 (binding information)” value with HLA-A*0301 (setting [2]) came to 0.0004. Also, the “A*301 (binding data)” value with HLA-A*0301 (Malaria A03 supermotif peptides, Table IX) came out at 0.0004. Also, the “A*1101 binding information” value in the assay with HLA-A*1101 (setting [3]) came out at 0.0100. The substance further yielded a DR1 binding data in the assay with DRB1*0101 (DR1) of 0.0012. For the same substance, in the assay with DRB1*0401 (DR4w4), the DR4w4 binding data is reported as 0.0120. In the assay with DRB1*0701 (DR7), this substance had a DR7 binding data of 0.0005.
On to NSEDRETPPH, for which the “A*1101 binding information” value in the assay with HLA-A*1101 (setting [3]) came out at 0.0002.
For QCEEERCPPK, the “A*0301 (binding information)” value in the assay with HLA-A*0301 (setting [2]) is given as 0.0004. In addition, the “A*1101 binding information” value with HLA-A*1101 (setting [3]) worked out at 0.0002.
As to SLYDEHRKY, the “A*1101 binding information” value with HLA-A*1101 (setting [3]) is listed as 0.0045.
As for SVTCGKOTFt (SVTCGKGTR), in the assay with HLA-A*1101 (setting [3]), the “A*1101 binding information” value was found to be 0.0009.
Consider TCGKGIRSRK, for which, in the assay with HLA-A*1101 (setting [3]), the “A*1101 binding information” value amounted to 0.0002.
For the substance VDELSEDTK, in the assay with HLA-A*1101 (setting [3]), the “A*1101 binding information” value is listed as 0.0002.
The substance VDLYLLMDC showed a DR1 binding data with DRB1*0101 (DR1) of 0.0001. This substance also registered a DR4w4 binding data with DRB1*0401 (DR4w4) of 0.0028. Further, the DR4w15 binding data with DRB1*0405 (DR4w15) is -0.0009. In the assay with DRB1*0701 (DR7), the DR7 binding data was -0.0003. Further, the DR8w2 binding data with DRB1*0802 (DR8w2) was -0.0003. In the assay with DRB1*1101 (DR5w11), this substance showed a DR5w11 binding data of -0.0002. Further, in the assay with DRB1*1201 (DR5w12), the DR5w12 binding data was found to be 0.0001. The substance also yielded a DR2w2β2 binding data with DRB5*0101 (DR2w2β2) of -0.0005.
For VEKTASCGV, the DR1 binding data in the assay with DRB1*0101 (DR1) is 0.0004. Besides, the DR4w4 binding data in the assay with DRB1*0401 (DR4w4) turned out to be 0.0021. This substance displayed a DR4w15 binding data with DRB1*0405 (DR4w15) of -0.0009. Further, the DR7 binding data in the assay with DRB1*0701 (DR7) was 0.0095. Also, the DR8w2 binding data with DRB1*0802 (DR8w2) came to 0.0005. Besides, the DR5w11 binding data with DRB1*1101 (DR5w11) is recorded as -0.0002. The DR5w12 binding data with DRB1*1201 (DR5w12) is 0.0001. In the assay with DRB5*0101 (DR2w2β2), the DR2w2β2 binding data was -0.0009.
With VLYNTEXGRH, the “A*1101 binding information” value with HLA-A*1101 (setting [1]) is 0.0002.
In the case of VWDEWSPCS, in the assay with DRB1*0101 (DR1) (setting [4]), the DR1 binding information was determined as 0.0001. Moreover, the DR3 binding information with DRB1*0301 (DR3) (setting [4]) is -0.0041. This substance also had a DR4w4 binding information with DRB1*0401 (DR4w4) (setting [4]) of -0.0009. The DR4w15 binding information with DRB1*0405 (DR4w15) (setting [4]) is listed as -0.0009. In the assay with DRB1*0701 (DR7), this substance came in with a DR7 binding information of -0.0003. Further, the DR8w2 binding information in the assay with DRB1*0802 (DR8w2) was -0.0003. This substance also returned a DR5w11 binding information with DRB1*1101 (DR5w11) of -0.0002. For the same substance, the DR5w12 binding information with DRB1*1201 (DR5w12) (setting [4]) turned out to be 0.0001. In the assay with DRB5*0101 (DR2w2β2), this substance had a DR2w2β2 binding information of -0.0005.
With WSPCSVTCGK, the “A*1101 binding information” value with HLA-A*1101 (setting [3]) was found to be 0.0002.
Substance YDNAGINLY registered a DR1 binding data with DRB1*0101 (DR1) of 0.0003. Also, the DR4w4 binding data with DRB1*0401 (DR4w4) is given as -0.0009. In addition, the DR4w15 binding data with DRB1*0405 (DR4w15) is -0.0009. The DR7 binding data with DRB1*0701 (DR7) is listed as -0.0003. For the same substance, the DR8w2 binding data in the assay with DRB1*0802 (DR8w2) is -0.0003. In the assay with DRB1*1101 (DR5w11), this substance gave a DR5w11 binding data of -0.0002. The substance further gave a DR5w12 binding data with DRB1*1201 (DR5w12) of 0.0001. Also, in the assay with DRB5*0101 (DR2w2β2), the DR2w2β2 binding data was -0.0005.
